From patent US10202593B2, “Evolved sortases and uses thereof” (President and Fellows of Harvard College, priority 2013, dated 2019)
Substitutions are numbered along the chain they refer to. Numbers in names are those of the source. Where two headings read alike, the source gives them in different places.

Tests used:
LSETG = assay: In vitro sortase kinetics HPLC assay, LSETG substrate; type: biochemical
Experimental: See below for details on sortase expression and purification, and on the synthesis of Abz-LPETGK(Dnp)-CONH2 (SEQ ID NO: 19). […] Reactions were initiated with the addition of enzyme and incubated at 22.5° C. for 3 to 20 minutes before quenching with 0.5 volumes of 1 M HCl. Five to ten nmol of peptide from the quenched reactions were injected onto an analytical reverse-phase Eclipse XDB-C18 HPLC column (4.6×150 mm, 5 μm, Agilent Technologies) and chromatographed using a gradient of 10 to 65% acetonitrile with 0.1% TFA in 0.1% aqueous TFA over 13 minutes. Retention times under these conditions for the Abz-LPETGK(Dnp)-CONH2 (SEQ ID NO: 19) substrate, the released GKDnp peptide, and the Abz-LPETGGG-COOH (SEQ ID NO: 20) product were 12.8, 10.4, and 9.1 min, respectively. To calculate the percent conversion, the ratio of the integrated areas of the Abz-LPETGGG-COOH (SEQ ID NO: 20) and Abz-LPETGK(Dnp)-CONH2 (SEQ ID NO: 19) peptide Abs220 peaks was compared to a standard curve generated by mixing the product and starting peptide in known ratios. To determine […] and Km, reaction rates were fit to the Michaelis-Menten equation using OriginPro 7.0 software. All kinetics values reported represent the average of at least three measurements. Percent conversion was also calculated by using the ratio of the integrated areas of the GK(Dnp)-CONH2 and Abz-LPETGK(Dnp)-CONH2 peptide Abs355 peaks were compared directly (Example 5). To determine kcat and Km, LPETG, reaction rates were fit to the Michaelis-Menten equation using Microsoft Excel using the Solver add-in. To determine Km,GGG and KH, reaction rates were fit to the modified Michaelis-Menten, for which KH is as defined when KH<<Km,GGG.
Assays to determine eSrtA, eSrtA(2A-9) and eSrtA(4S-9) specificity were performed by preparing 10 μM stocks of Abz-LXEXGK(Dnp) (SEQ ID NO: 75) peptides in 300 mM Tris pH 7.5, 150 mM NaCl, 5 mM CaCl2, 5% v/v DMSO, and 100 mM Gly-Gly-Gly-COOH (GGG). Reactions were performed by adding eSrtA(2A-9) to a final concentration of 450 nM, eSrtA(4S-9) to a final concentration of 115 nM or eSrtA to a final concentration of 47.5 nM and a final volume of 100 μL, then incubating at 22.5° C. for 15 minutes. Reactions were quenched by the addition of 0.2 volumes of 5 M HCl, then were injected onto an analytical reverse-phase Eclipse XDB-C18 HPLC column (4.6×150 mm, 5 μm, Agilent Technologies) and chromatographed using a gradient of 10 to 65% acetonitrile with 0.1% TFA in 0.1% aqueous TFA over 13 minutes. Retention times under these conditions for the Abz-LPETGK(Dnp)-CONH2 (SEQ ID NO: 19) substrate, the released GKDnp peptide, and the Abz-LPETGGG-COOH (SEQ ID NO: 20) product were 12.8, 10.4, and 9.1 min, respectively, while the remaining Abz-LXEXGK(Dnp)-CONH2 (SEQ ID NO: 74) substrates varied in retention time between 9 and 13 minutes. To calculate the percent conversion, the ratio of the integrated areas of the GK(Dnp)-CONH2 and Abz-LPETGK(Dnp)-CONH2 (SEQ ID NO: 19) peptide Abs355 peaks were compared directly. Subsequent determination of kcat/Km and KH were performed as described for in vitro SrtA characterization.
The original pentamutant comprising the mutations P94R, D160N, D165A, K190E, and K196T is referred to as eSrtA. Sortase variants herein were evolved using eSrtA as the parent enzyme in the evolution experiments. In some cases, an evolved sortase comprises a N160K mutation instead of a D160N or a T196S mutation instead of a K196T. Parameters are reported with their standard deviations as determined from three technical replicates. kcat, Km and kcat/Km parameters were determined at 100 mM GGG concentration, while Km,GGG and KH parameters were determined at 1 mM concentration of the listed substrate.

[1] = Materials (surface) functionalization of GGG-PEG 96-well plates; type: biochemical; conditions: Alexa Fluor 488-LAETGG or Alexa Fluor 647-LPESGG, 2 hours
Experimental: FIG. 21A-D show applications of evolved sortases. (A) N- and C-terminal labeling of fibroblast growth factors FGF1 and FGF2. Tandem SUMO-TEV cleavage site-FGF1/2-LPESG-His6 (SEQ ID NO: 27) constructs were treated with eSrtA(4S-9) in the presence of GGG-PEG, then with eSrtA(2A-9) and TEV protease in the presence of Alexa Fluor750-LAETGG (SEQ ID NO: 35) and purified to afford the final conjugates in up to 20% yield (Table 3). The crude reactions were analyzed by SDS-PAGE and scanned for fluorescence at 700 nm. (B) Surface functionalization using eSrtA(2A-9) and eSrtA(4S-9). […] The total fluorescence of the resulting surfaces was measured at 488 nm or 647 nm, then normalized to the fluorescent intensities obtained from the samples containing eSrtA(2A-9)+488-LAETG (SEQ ID NO: 5) or eSrt(4S-9)+647-LPESG (SEQ ID NO: 3). […]
GGG-functionalized substrate was generated by incubating 100 μL of 2 μM biotin-PEG (5K)-GGG in streptavidin coated 96 well microplates (Pierce) for 2 hours at room temperature, and washed three times with TBST buffer (20 mM Tris, 100 mM NaCl, pH 7.5 with 0.05% Tween 20). […] Total fluorescent intensities were measured at 488 nm and 647 nm using a Biotek Synergy NEO HTS Multi Mode microplate reader. […]

[2] = Sub LSETG, 100 mM GGG, read-out: Km

B1: eSrtA (protein)
chain: QAKPQIPKDKSKVAGYIEIPDADIKEPVYPGPATREQLNRGVSFAEENESLDDQNISIAGHTFIDRPNYQFTNLKAAKKGSMVYFKVGNETRKYKMTSIRNVKPTAVEVLDEQKGKDKQLTLITCDDYNEETGVWETRKIFVATEVK
KH (LSETG; 1 mM LSETG): 37.4 ± 3.4 µM
Km (LSETG; 1 mM LSETG, read-out: Km,GGG): 337 ± 16 µM
Kcat (Hz) (LSETG; Sub LSETG, 100 mM GGG): 0.102 ± 0.001 Hz
Km (LSETG; [2]): 533 ± 24 µM

B2: eSrtA(4S-9): P94R, N98D, S102C, A104V, A118T, F122A, K134R, F144L, D160N, D165A, I182V, E189F, K190E, K196T (protein)
chain: B1 chain with N39D, S43C, A45V, A59T, F63A, K75R, F85L, I123V, E130F
modification of GGG-PEG-functionalized surfaces [1]: significant modification only on its cognate substrate

B3: eSrtA(2A-9): P94R, S102C, A104H, E105D, K138P, K152I, N160K, K162H, T164N, D165A, K173E, I182V, K190E, T196S (protein)
chain: QAKPQIPKDKSKVAGYIEIPDADIKEPVYPGPATREQLNRGVCFHDENESLDDQNISIAGHTFIDRPNYQFTNLKAAKPGSMVYFKVGNETRIYKMTSIRKVHPNAVEVLDEQEGKDKQLTLVTCDDYNEETGVWESRKIFVATEVK
modification of GGG-PEG-functionalized surfaces [1]: significant modification only on its cognate substrate
KH (LSETG; 1 mM LSETG): 26.0 ± 3.4 µM
Km (LSETG; 1 mM LSETG, read-out: Km,GGG): 1270 ± 200 µM
Kcat (Hz) (LSETG; Sub LSETG, 100 mM GGG): 0.115 ± 0.007 Hz
Km (LSETG; [2]): 331 ± 67 µM
